Measurements as given in paper PMC5457915, “Real-time analysis of the binding of fluorescent VEGF165a to VEGFR2 in living cells: Effect of receptor tyrosine kinase inhibitors and fate of internalized agonist-receptor complexes” (Biochemical Pharmacology, 2017).

Biological target: VEGFR2 (Homo sapiens, UniProt P35968)
Assay: NFAT luciferase reporter gene assay in HEK293T ReLuc2P cells stably expressing wild-type VEGFR2
Type: cell-based
Set-up: in cells expressing the wild-type VEGFR2 receptor; host or cells: HEK293T ReLuc2P suspension cell line
Settings: cells expressing the wild-type VEGFR2 receptor; n = 4
Experimental: NFAT luciferase reporter gene activity was monitored in a HEK293T ReLuc2P (Promega Corporation, USA) suspension cell line stably expressing VEGFR2 as described previously.
NFAT reporter genes: All data obtained from the NFAT luciferase reporter gene assays were normalised to 10 nM VEGF165a responses and fitted with non linear regression using the equation as described previously.

VEGFR2, sequence (P35968 20-1356): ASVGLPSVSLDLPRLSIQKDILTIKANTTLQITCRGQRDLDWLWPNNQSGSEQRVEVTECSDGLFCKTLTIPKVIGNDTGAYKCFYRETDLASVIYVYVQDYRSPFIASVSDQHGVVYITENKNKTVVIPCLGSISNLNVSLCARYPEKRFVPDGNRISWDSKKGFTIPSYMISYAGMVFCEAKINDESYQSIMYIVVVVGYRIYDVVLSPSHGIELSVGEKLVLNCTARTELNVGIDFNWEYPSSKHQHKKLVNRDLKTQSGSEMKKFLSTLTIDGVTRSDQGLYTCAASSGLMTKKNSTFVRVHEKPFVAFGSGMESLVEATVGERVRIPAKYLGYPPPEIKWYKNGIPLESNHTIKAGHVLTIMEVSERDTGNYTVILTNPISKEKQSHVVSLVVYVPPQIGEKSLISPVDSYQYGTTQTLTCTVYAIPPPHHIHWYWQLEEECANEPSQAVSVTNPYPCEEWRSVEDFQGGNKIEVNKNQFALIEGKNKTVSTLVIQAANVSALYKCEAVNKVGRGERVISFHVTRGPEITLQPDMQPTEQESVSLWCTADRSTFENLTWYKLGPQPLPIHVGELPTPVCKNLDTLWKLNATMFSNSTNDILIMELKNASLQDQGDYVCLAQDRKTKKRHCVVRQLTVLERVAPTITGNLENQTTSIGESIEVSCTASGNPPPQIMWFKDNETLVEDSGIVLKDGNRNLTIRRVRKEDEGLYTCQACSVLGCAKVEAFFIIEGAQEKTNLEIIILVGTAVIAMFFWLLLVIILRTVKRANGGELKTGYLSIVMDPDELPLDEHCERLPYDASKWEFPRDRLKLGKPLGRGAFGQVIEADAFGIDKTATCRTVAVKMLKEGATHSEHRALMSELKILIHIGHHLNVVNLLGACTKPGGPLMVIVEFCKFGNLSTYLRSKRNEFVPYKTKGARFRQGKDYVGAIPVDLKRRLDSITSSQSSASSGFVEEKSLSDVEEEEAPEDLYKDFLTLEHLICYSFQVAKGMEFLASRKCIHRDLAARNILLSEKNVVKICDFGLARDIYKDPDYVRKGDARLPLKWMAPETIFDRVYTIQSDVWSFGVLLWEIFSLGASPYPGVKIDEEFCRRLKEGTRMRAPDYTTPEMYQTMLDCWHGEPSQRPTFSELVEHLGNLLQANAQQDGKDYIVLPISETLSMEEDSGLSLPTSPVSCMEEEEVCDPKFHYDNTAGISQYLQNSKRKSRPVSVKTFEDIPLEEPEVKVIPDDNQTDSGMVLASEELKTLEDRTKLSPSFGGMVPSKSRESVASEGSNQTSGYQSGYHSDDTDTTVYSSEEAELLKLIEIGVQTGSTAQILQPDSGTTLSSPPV

- pEC50, NFAT reporter gene agonist activity: 9.72 ± 0.09
B1: non-fluorescent VEGF165a: unlabeled VEGF165a purified in an identical manner to VEGF165a-TMR, with modified N-terminus (protein)
chain: CDNAPMAEGGGQNHHEVVKFMDVYQRSYCHPIETLVDIFQEYPDEIEYIFKPSCVPLMRCGGCCNDEGLECVPTEESNITMQIMRIKPHQGQHIGEMSFLQHNKCECRPKKDRARQENPCGPCSERRKHLFVQDPQTCKCSCKNTDSRCKARQLELNERTCRCDKPRR
modifications: free N-terminal Cys (unlabeled); HEK293T-expressed, glycosylated; disulfide-linked antiparallel homodimer
